In US20160185850A1 (ESBATECH AN ALCON BIOMEDICAL RESEARCH UNIT, published 2016):
Like-named read-outs stand apart in the source and are kept apart here. Blank lines part the entries; values can stand above or below the binder they belong to.

Tests used:
recombinant human TNFα [1] = target: T1, recombinant human TNFα (human, UniProt P01375 77-233); assay: cell-based or functional assay
recombinant human TNFα [2] = target: T1, recombinant human TNFα; assay: ELISA on recombinant human TNFα
recombinant human TNFα [3] = target: T1, recombinant human TNFα; assay: ELISA dilution series on TNFα after 3 days at 37°C in assay buffer TBSTM (positive control)
recombinant human TNFα [4] = target: T1, recombinant human TNFα; assay: surface plasmon resonance (BIACore)
recombinant human TNFα [5] = target: T1, recombinant human TNFα; assay: cell-based or functional assay; remark: listed apart in the source
recombinant human TNFα [6] = target: T1, recombinant human TNFα; assay: ELISA dilution series on TNFα after 3 days at 37°C in human serum (column 'serum')
recombinant human TNFα [7] = target: T1, recombinant human TNFα; assay: ELISA dilution series on TNFα after 3 days at 37°C in pig vitreous body fluid (column 'vitreous body fluid')
recombinant human TNFα [8] = target: T1, recombinant human TNFα; assay: cell-based or functional assay; remark: listed apart in the source
recombinant human TNFα [9] = target: T1, recombinant human TNFα; assay: ELISA dilution series on TNFα after 3 days at 37°C in human urine (column 'urine')
recombinant human TNFα [10] = target: T1, recombinant human TNFα; assay: ELISA dilution series on TNFα after 3 days at 37°C in pig anterior chamber fluid (column 'anterior chamber fluid')
recombinant human TNFα [11] = target: T1, recombinant human TNFα; assay: ELISA on recombinant human TNFα; remark: listed apart in the source
recombinant human TNFα [12] = target: T1, recombinant human TNFα; assay: cell-based or functional assay; remark: listed apart in the source

T1 sequence (P01375 77-233 limits assumed): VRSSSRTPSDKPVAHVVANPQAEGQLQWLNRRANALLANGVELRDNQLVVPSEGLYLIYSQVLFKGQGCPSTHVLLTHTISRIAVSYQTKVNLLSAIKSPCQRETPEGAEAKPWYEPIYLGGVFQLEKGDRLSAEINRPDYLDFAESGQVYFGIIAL

B1: TB-A (scFv)
scFv: DIVMTQSPSSLSASVGDRVTLTCTASQSVSNDVVWYQQRPGKAPKLLIYSAFNRYTGVPSRFSGRGYGTDFTLTISSLQPEDVAVYYCQQDYNSPRTFGQGTKLEVKRGGGGSGGGGSGGGGSGGGGSQVQLVQSGAEVKKPGASVKVSCTASGYTFTHYGMNWVRQAPGKGLEWMGWINTYTGEPTYADKFKDRFTFSLETSASTVYMELTSLTSDDTAVYYCARERGDAMDYWGQGTLVTVSS
notes: also called TB-A scFv; TB-A scFv antibody
- IC50, inhibition of human TNFα-induced cytotoxicity in mouse L929 fibroblasts (recombinant human TNFα [1]): 29.7 ng/mL
- EC50 (read off the curve) (recombinant human TNFα [2]): ~3 nM
- Kd (recombinant human TNFα [3]): 3.39 nM
- Kd (recombinant human TNFα [4]): 0.8 nM
- koff (recombinant human TNFα [4]): 0.00044 s⁻¹
- kon (recombinant human TNFα [4]): 500000 M⁻¹ s⁻¹
- Relative potency: EC50X/EC50TB-A, KYM-1 cells (recombinant human TNFα [5]): 1 ratio EC50X/EC50TB-A
- Relative potency: EC50X/EC50TB-A, L929 cells (recombinant human TNFα [5]): 1 ratio EC50X/EC50TB-A
- Kd (recombinant human TNFα [6]): 3.62 nM
- Kd (recombinant human TNFα [7]): 3.18 nM
- IC50, inhibition of human TNFα-induced cytotoxicity in mouse L929 fibroblasts (recombinant human TNFα [8]): 14.4 ng/mL
- Kd (recombinant human TNFα [9]): 4.14 nM
- Kd (recombinant human TNFα [10]): 2.97 nM

B2: TB-AB (scFv)
scFv (VL of TB-A - (GGGGS)4 linker - VH of TB-B): DIVMTQSPSSLSASVGDRVTLTCTASQSVSNDVVWYQQRPGKAPKLLIYSAFNRYTGVPSRFSGRGYGTDFTLTISSLQPEDVAVYYCQQDYNSPRTFGQGTKLEVKRGGGGSGGGGSGGGGSGGGGSQVQLVQSGAEVKKPGASVKVSCTASGYSFTHYGMNWVRQAPGQGLEWMGWINTYTGEPTYADKFKDRVTLTRDTSIGTVYMELTSLTSDDTAVYYCARERGDAMDYWGQGTLVTVSS
notes: Domain-shuffled variant: VL domain of TB-A with VH domain of TB-B
- EC50 (read off the curve) (recombinant human TNFα [2]): ~3 nM

B5: TB-A Fab antibody (Fab, V domains shown)
VH: QVQLVQSGAEVKKPGASVKVSCTASGYTFTHYGMNWVRQAPGKGLEWMGWINTYTGEPTYADKFKDRFTFSLETSASTVYMELTSLTSDDTAVYYCARERGDAMDYWGQGTLVTVSS
VL: DIVMTQSPSSLSASVGDRVTLTCTASQSVSNDVVWYQQRPGKAPKLLIYSAFNRYTGVPSRFSGRGYGTDFTLTISSLQPEDVAVYYCQQDYNSPRTFGQGTKLEVKR
- IC50, inhibition of human TNFα-induced cytotoxicity in mouse L929 fibroblasts (recombinant human TNFα [1]): 65.9 ng/mL
- IC50 in the L929 assay, Fab format relative to scFv format of TB-A (recombinant human TNFα [12]): ~2 fold (IC50 Fab / IC50 scFv)

B6: TB-wt (scFv)
scFv: DIVMTQTPKFLLVSAGDRVTITCTASQSVSNDVVWYQQKPGQSPKMLMYSAFNRYTGVPDRFTGRGYGTDFTFTISSVQAEDLAVYFCQQDYNSPRTFGGGTKLEIKRGGGGSGGGGSGGGGSGGGGSQIQLVQSGPELKKPGETVKISCKASGYTFTHYGMNWVKQAPGKGLKWMGWINTYTGEPTYADDFKEHFAFSLETSASTVFLQINNLKNEDTATYFCARERGDAMDYWGQGTSVTVSS
- IC50, inhibition of human TNFα-induced cytotoxicity in mouse L929 fibroblasts (recombinant human TNFα [8]): 161 ng/mL

More lines, now with the values ahead:

- binding result (recombinant human TNFα [11]): binds
B3: TB-A L_R65S (scFv)
scFv: DIVMTQSPSSLSASVGDRVTLTCTASQSVSNDVVWYQQRPGKAPKLLIYSAFNRYTGVPSRFSGSGYGTDFTLTISSLQPEDVAVYYCQQDYNSPRTFGQGTKLEVKRGGGGSGGGGSGGGGSGGGGSQVQLVQSGAEVKKPGASVKVSCTASGYTFTHYGMNWVRQAPGKGLEWMGWINTYTGEPTYADKFKDRFTFSLETSASTVYMELTSLTSDDTAVYYCARERGDAMDYWGQGTLVTVSS
notes: also called TB-A L65

- EC50 (read off the curve) (recombinant human TNFα [2]): ~700 nM
B4: TB-BA (scFv)
scFv (VL of TB-B - (GGGGS)4 linker - VH of TB-A): DIVLTQSPSSLSASVGDRVTLTCTASQSVSNDVVWYQQRPGKAPKRLIYSAFNRYTGVPSRFSGSGSGTEFTLTISSLQPEDVAVYYCQQDYNSPRTFGQGTKLEVKRGGGGSGGGGSGGGGSGGGGSQVQLVQSGAEVKKPGASVKVSCTASGYTFTHYGMNWVRQAPGKGLEWMGWINTYTGEPTYADKFKDRFTFSLETSASTVYMELTSLTSDDTAVYYCARERGDAMDYWGQGTLVTVSS
notes: Domain-shuffled variant: VL domain of TB-B with VH domain of TB-A
